Measured values reported in patent US20120087858A1 (AbbVie / Abbott, published 2012).

T1: Recombinant Human SOST (human, UniProt Q9BQB4 24-213)
T1 construct: Biacore reagent from R&D Systems; the Wnt-1/luciferase assay used Human Sclerostin (Abbott PR-1261069); also called Sclerostin; Human Sclerostin
T1 sequence (looked up): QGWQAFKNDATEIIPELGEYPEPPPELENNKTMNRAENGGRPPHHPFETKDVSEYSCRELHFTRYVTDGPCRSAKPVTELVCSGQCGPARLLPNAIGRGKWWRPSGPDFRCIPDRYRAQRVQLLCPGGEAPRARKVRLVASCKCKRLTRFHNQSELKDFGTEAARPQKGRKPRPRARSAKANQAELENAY


Tests used:
[1] = molecular target: T2, Recombinant Human TNF-α/TNFSF1A (human, UniProt P01375 77-233); test: cell-based or functional assay
[2] = molecular target: T2, Recombinant Human TNF-α/TNFSF1A; test: Biacore SPR
Experimental: (§1) The BIACORE assay (Biacore, Inc, Piscataway, N.J.) determines the affinity of antibodies or DVD-Ig with kinetic measurements of on-rate and off-rate constants. Binding of antibodies or DVD-Ig to a target antigen (for example, a purified recombinant target antigen) is determined by surface plasmon resonance-based measurements with a Biacore® 1000 or 3000 instrument (Biacore® AB, Uppsala, Sweden) using running HBS-EP (10 mM HEPES [pH 7.4], 150 mM NaCl, 3 mM EDTA, and 0.005% surfactant P20) at 25° C. All chemicals are obtained from Biacore® AB (Uppsala, Sweden) or otherwise from a different source as described in the text. For example, approximately 5000 RU of goat anti-mouse IgG, (Fcγ), fragment specific polyclonal antibody (Pierce Biotechnology Inc, Rockford, Ill.) diluted in 10 mM sodium acetate (pH 4.5) is directly immobilized across a CMS research grade biosensor chip using a standard amine coupling kit according to manufacturer's instructions and procedures at 25 μg/ml. Unreacted moieties on the biosensor surface are blocked with ethanolamine. Modified carboxymethyl dextran surface in flowcell 2 and 4 is used as a reaction surface. Unmodified carboxymethyl dextran without goat anti-mouse IgG in flow cell 1 and 3 is used as the reference surface. For kinetic analysis, rate equations derived from the 1:1 Langmuir binding model are fitted simultaneously to association and dissociation phases of all eight injections (using global fit analysis) with the use of Biaevaluation 4.0.1 software. Purified antibodies or DVD-Ig are diluted in HEPES-buffered saline for capture across goat anti-mouse IgG specific reaction surfaces. Antibodies or DVD-Ig to be captured as a ligand (25 μg/ml) are injected over reaction matrices at a flow rate of 5 μl/min. The association and dissociation rate constants, kₒₙ (M⁻¹s⁻) and koff(s⁻¹) are determined under a continuous flow rate of 25 μl/min. Rate constants are derived by making kinetic binding measurements at different antigen concentrations ranging from 10-200 nM. The equilibrium dissociation constant (M) of the reaction between antibodies or DVD-Igs and the target antigen is then calculated from the kinetic rate constants by the following formula: KD=koff/kₒₙ. Binding is recorded as a function of time and kinetic rate constants are calculated.

Recombinant Human SOST = molecular target: T1, Recombinant Human SOST; test: Biacore SPR
Experimental: as §1

T2 sequence (P01375 77-233 limits assumed): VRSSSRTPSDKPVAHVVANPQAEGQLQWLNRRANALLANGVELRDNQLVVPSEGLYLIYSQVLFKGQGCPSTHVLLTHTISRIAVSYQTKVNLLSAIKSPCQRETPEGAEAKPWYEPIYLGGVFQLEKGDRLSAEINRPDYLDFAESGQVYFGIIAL

Binder | TNFα Neutralization Assay EC50 (L929 cells) [1] | Kd [2] | koff [2] | kon [2] | other results
AB218 (antibody, V domains shown, Parent antibody) VH: EVQLVESGGGLIQPGGSLRLSCAASGFTVSRNYMSWVRQAPGKGLEWVSVIYSGDRTYYADSVKGRFTISRDNSKNTLYLQMNSLRAEDTAVYYCARGEGGFDYWGQGTLVTVSS VL: EIVMTQSPATLSVSPGERATLSCRASQSVSSNLAWYQQKPGQAPRLLIHGASIRATGLPARFSGSGSGTEFTLTISSLQSEDFAVYYCQQYNYWWTFGQGTKVEIKR | 0.045 nM | 0.0288 nM | 5.15e-05 s⁻¹ | 1.79e+06 M⁻¹ s⁻¹ | –
AB022 (antibody, V domains shown, Parent antibody; also called SOST parent antibody) VH: EVQLQQSGPELVTPGASVKISCKASGYTFTDHYMSWVKQSHGKSLEWIGDINPYSGETTYNQKFKGTATLTVDKSSSIAYMEIRGLTSEDSAVYYCARDDYDASPFAYWGQGTLVTVSA VL: DVQMIQSPSSLSASLGDIVTMTCQASQGTSINLNWFQQKPGKAPKLLIYGSSNLEDGVPSRFSGSRYGTDFTLTISSLEDEDLATYFCLQHSYLPYTFGGGTKLEIKR | – | – | – | – | Kd (Recombinant Human SOST): 0.0408 nM; koff (Recombinant Human SOST): 0.000396 s⁻¹; kon (Recombinant Human SOST): 9.68e+06 M⁻¹ s⁻¹
DVD1474 (bispecific antibody, human IgG1, kappa) heavy: not shown light: DVLMTQTPLSLPVTPGEPASISCTSSQNIVHSNGNTYLEWYLQKPGQSPQLLIYKVSNRFSGVPDRFSGSGSGTDFTLKISRVEAEDVGVYYCFQVSHVPYTFGGGTKVEIKRTVAAPSVFIFPPDIQMTQSPSSLSASVGDRVTITCRASQGIRIDLGWYQQKPGKAPKRLIYAASTLQSGVPSRFSGSGSGTEFIFTISSLQPEDFASYYCLQHKSYPLTFGGGTKVEIKRTVAAPSVFIFPPSDEQLKSGTASVVCLLNNFYPREAKVQWKVDNALQSGNSQESVTEQDSKDSTYSLSSTLTLSKADYEKHKVYACEVTHQGLSSPVTKSFNRGEC | 0.273 nM | – | – | – | –
DVD1475 (bispecific antibody, human IgG1, kappa, DVD-Ig; linker set 2; also called DVD1475H; DVD1475L) heavy: not shown light: DIQMTQSPSSLSASVGDRVTITCRASQGIRIDLGWYQQKPGKAPKRLIYAASTLQSGVPSRFSGSGSGTEFIFTISSLQPEDFASYYCLQHKSYPLTFGGGTKVEIKRTVAAPSVFIFPPDVQMIQSPSSLSASLGDIVTMTCQASQGTSINLNWFQQKPGKAPKLLIYGSSNLEDGVPSRFSGSRYGTDFTLTISSLEDEDLATYFCLQHSYLPYTFGGGTKLEIKRTVAAPSVFIFPPSDEQLKSGTASVVCLLNNFYPREAKVQWKVDNALQSGNSQESVTEQDSKDSTYSLSSTLTLSKADYEKHKVYACEVTHQGLSSPVTKSFNRGEC | 0.002 nM | 0.013 nM | 3.6e-05 s⁻¹ | 2.7e+06 M⁻¹ s⁻¹ | Kd (Recombinant Human SOST): 0.9 nM; koff (Recombinant Human SOST): 0.00073 s⁻¹; kon (Recombinant Human SOST): 810000 M⁻¹ s⁻¹
AB217 (antibody, V domains shown, Parent antibody) VH: QVQLVESGGGVVQPGRSLRLSCAASGFTFSSYDMHWVRQAPGKGLEWVAVIWSDGSIKYYADSVKGRFTISRDNSKNTLYLQMNSLRAEDTAVYYCAREVESAMGGFYYNGMDVWGQGTTVTVSS VL: DIQMTQSPSSLSASVGDRVTITCRASQGIRIDLGWYQQKPGKAPKRLIYAASTLQSGVPSRFSGSGSGTEFIFTISSLQPEDFASYYCLQHKSYPLTFGGGTKVEIKR | 0.0762 nM | 0.0272 nM | 5.04e-05 s⁻¹ | 1.85e+06 M⁻¹ s⁻¹ | –
AB213 (antibody, V domains shown, Parent antibody) VH: QVQLKESGPGLVAPSQSLSITCTVSGFSLTDYGVNWVRQPPGKGLEWLGMIWGDGSTDYDSTLKSRLSISKDNSKSQIFLKMNSLQTDDTARYYCAREWHHGPVAYWGQGTLVTVSA VL: DIVMTQSHKFMSTTVGDRVSITCKASQAVSSAVAWYQQKPGQSPKLLIYWASTRHTGVPDRFTGSGSVTDFTLTIHNLQAEDLALYYCQQHYSTPFTFGSGTKLEIKR | 0.124 nM | 0.0335 nM | 0.000108 s⁻¹ | 3.23e+06 M⁻¹ s⁻¹ | –
DVD1448 (bispecific antibody, human IgG1, kappa) heavy: not shown light: DVLMTQTPLSLPVTPGEPASISCTSSQNIVHSNGNTYLEWYLQKPGQSPQLLIYKVSNRFSGVPDRFSGSGSGTDFTLKISRVEAEDVGVYYCFQVSHVPYTFGGGTKVEIKRTVAAPSVFIFPPDIVMTQSHKFMSTTVGDRVSITCKASQAVSSAVAWYQQKPGQSPKLLIYWASTRHTGVPDRFTGSGSVTDFTLTIHNLQAEDLALYYCQQHYSTPFTFGSGTKLEIKRTVAAPSVFIFPPSDEQLKSGTASVVCLLNNFYPREAKVQWKVDNALQSGNSQESVTEQDSKDSTYSLSSTLTLSKADYEKHKVYACEVTHQGLSSPVTKSFNRGEC | 1.39 nM | – | – | – | –

More lines, main results first:

TNFα Neutralization Assay EC50 (L929 cells) [1] | Kd [2] | koff [2] | kon [2] | Binder | other results
4.18 nM | – | – | – | DVD1522 (bispecific antibody, human IgG1, kappa) heavy: not shown light: DVVMTQTPLSLPVSLGDQASISCTSGQSLVHINGNTYLHWYLQKPGQSPKLLIYKVSNLFSGVPDRFSGSGSGTDFTLKISRVEAEDLGVYFCSQSTHFPFTFGTGTKLEIKRTVAAPDIQMTQSPSSLSASVGDRVTITCRASQGIRIDLGWYQQKPGKAPKRLIYAASTLQSGVPSRFSGSGSGTEFIFTISSLQPEDFASYYCLQHKSYPLTFGGGTKVEIKRTVAAPSVFIFPPSDEQLKSGTASVVCLLNNFYPREAKVQWKVDNALQSGNSQESVTEQDSKDSTYSLSSTLTLSKADYEKHKVYACEVTHQGLSSPVTKSFNRGEC | –
0.133 nM | – | – | – | DVD1507 (bispecific antibody, human IgG1, kappa) heavy: not shown light: DIVMTQSHKFMSTTVGDRVSITCKASQAVSSAVAWYQQKPGQSPKLLIYWASTRHTGVPDRFTGSGSVTDFTLTIHNLQAEDLALYYCQQHYSTPFTFGSGTKLEIKRTVAAPDVVMTQTPLSLPVSLGDQASISCTSGQSLVHINGNTYLHWYLQKPGQSPKLLIYKVSNLFSGVPDRFSGSGSGTDFTLKISRVEAEDLGVYFCSQSTHFPFTFGTGTKLEIKRTVAAPSVFIFPPSDEQLKSGTASVVCLLNNFYPREAKVQWKVDNALQSGNSQESVTEQDSKDSTYSLSSTLTLSKADYEKHKVYACEVTHQGLSSPVTKSFNRGEC | –
0.139 nM | – | – | – | DVD1476 (bispecific antibody, human IgG1, kappa) heavy: not shown light: DVQMIQSPSSLSASLGDIVTMTCQASQGTSINLNWFQQKPGKAPKLLIYGSSNLEDGVPSRFSGSRYGTDFTLTISSLEDEDLATYFCLQHSYLPYTFGGGTKLEIKRTVAAPSVFIFPPDIQMTQSPSSLSASVGDRVTITCRASQGIRIDLGWYQQKPGKAPKRLIYAASTLQSGVPSRFSGSGSGTEFIFTISSLQPEDFASYYCLQHKSYPLTFGGGTKVEIKRTVAAPSVFIFPPSDEQLKSGTASVVCLLNNFYPREAKVQWKVDNALQSGNSQESVTEQDSKDSTYSLSSTLTLSKADYEKHKVYACEVTHQGLSSPVTKSFNRGEC | –
0.89 nM | – | – | – | DVD1518 (bispecific antibody, human IgG1, kappa) heavy: not shown light: DVQMIQSPSSLSASLGDIVTMTCQASQGTSINLNWFQQKPGKAPKLLIYGSSNLEDGVPSRFSGSRYGTDFTLTISSLEDEDLATYFCLQHSYLPYTFGGGTKLEIKRTVAAPDIQMTQSPSSLSASVGDRVTITCRASQGIRIDLGWYQQKPGKAPKRLIYAASTLQSGVPSRFSGSGSGTEFIFTISSLQPEDFASYYCLQHKSYPLTFGGGTKVEIKRTVAAPSVFIFPPSDEQLKSGTASVVCLLNNFYPREAKVQWKVDNALQSGNSQESVTEQDSKDSTYSLSSTLTLSKADYEKHKVYACEVTHQGLSSPVTKSFNRGEC | –
8.71 nM | – | – | – | DVD1516 (bispecific antibody, human IgG1, kappa) heavy: not shown light: DVLMTQTPLSLPVTPGEPASISCTSSQNIVHSNGNTYLEWYLQKPGQSPQLLIYKVSNRFSGVPDRFSGSGSGTDFTLKISRVEAEDVGVYYCFQVSHVPYTFGGGTKVEIKRTVAAPDIQMTQSPSSLSASVGDRVTITCRASQGIRIDLGWYQQKPGKAPKRLIYAASTLQSGVPSRFSGSGSGTEFIFTISSLQPEDFASYYCLQHKSYPLTFGGGTKVEIKRTVAAPSVFIFPPSDEQLKSGTASVVCLLNNFYPREAKVQWKVDNALQSGNSQESVTEQDSKDSTYSLSSTLTLSKADYEKHKVYACEVTHQGLSSPVTKSFNRGEC | –
0.085 nM | – | – | – | DVD1496 (bispecific antibody, human IgG1, kappa) heavy: not shown light: DVQMIQSPSSLSASLGDIVTMTCQASQGTSINLNWFQQKPGKAPKLLIYGSSNLEDGVPSRFSGSRYGTDFTLTISSLEDEDLATYFCLQHSYLPYTFGGGTKLEIKRTVAAPDIVMTQSHKFMSTTVGDRVSITCKASQAVSSAVAWYQQKPGQSPKLLIYWASTRHTGVPDRFTGSGSVTDFTLTIHNLQAEDLALYYCQQHYSTPFTFGSGTKLEIKRTVAAPSVFIFPPSDEQLKSGTASVVCLLNNFYPREAKVQWKVDNALQSGNSQESVTEQDSKDSTYSLSSTLTLSKADYEKHKVYACEVTHQGLSSPVTKSFNRGEC | –
